In patent US20060067886A1, “Gastrin receptor-avid peptide conjugates” (priority 1997, published 2006):

Assays:
[1] = Biodistribution of radiometal-DOTA-BBN conjugates in CF1 normal mice; conditions: CF-1, mouse, in vivo, iv, total radioactivity; for tissue uptake dose at 1 h / dose excreted at 1 h: Avg % ID; for dose excreted at 1 h: Urine; for tissue uptake at 1 h: Avg % ID/gm
in vivo = conditions: SCID, mouse, iv, 4 uCi, total radioactivity
Procedure: In vivo pharmacokinetic studies in human tumor bearing SCID mice. […] The xenograft models were produced by bilateral flank inoculation of 5×10^6 cells (PC-3 or MDA-MB-231 cells) per site. Four to six weeks post inoculation, palpable tumors were observed. At this point, the mice were injected with 4 μCi of the complex in 100/μL of isotonic saline via the tail vein. The mice were euthanized and tissues and organs were excised from the animals at selected times post-injection (p.i.), including 15 minutes, 30 minutes, 1 hour, 4 hours, 24 hours, 48 hours, and 72 hours p.i. Subsequently, the tissues and organs were weighed and counted in a NaI well counter and the percent injected dose (% ID) and % ID/g of each organ or tissue calculated.

[2] = Blood, 1 hour, Blocking (excess BBN)
[3] = Kidney, 1 hour, Blocking (excess BBN)
[4] = L. Intestine, 1 hour, Blocking (excess BBN)
[5] = Liver, 1 hour, Blocking (excess BBN)
[6] = Lung, 1 hour, Blocking (excess BBN)
[7] = Muscle, 1 hour, Blocking (excess BBN)
[8] = Pancreas, 1 hour post-injection
[9] = Pancreas, 1 hour, Blocking (excess BBN)
[10] = S. Intestine, 1 hour, Blocking (excess BBN)
[11] = Spleen, 1 hour, Blocking (excess BBN)
[12] = Stomach, 1 hour, Blocking (excess BBN)

Compound: CSCC[C@H](NC(=O)[C@H](CC(C)C)NC(=O)[C@H](Cc1cnc[nH]1)NC(=O)CNC(=O)[C@@H](NC(=O)[C@H](C)NC(=O)[C@H](Cc1c[nH]c2ccccc12)NC(=O)[C@H](CCC(N)=O)NC(=O)CCCCCCCNC(=O)CN1CCN(CC(=O)O)CCN(CC(=O)O)CCN(CC(=O)O)CC1)C(C)C)C(N)=O [111In-DOTA-8-Aoc-BBN[7-14]NH2, metal not drawn]
- tissue uptake dose at 1 h [1, 2]: 0.98 ± 0.23 %ID
- tissue uptake dose at 1 h ([1]; Carcass, 1 hour, Blocking (excess BBN)): 7.42 ± 1.35 %ID
- tissue uptake dose at 1 h ([1]; Heart, 1 hour post-injection): 0.01 %ID
- tissue uptake dose at 1 h ([1]; Kidney, 1 hour post-injection): 1.04 ± 0.12 %ID
- tissue uptake dose at 1 h [1, 3]: 0.92 ± 0.13 %ID
- tissue uptake dose at 1 h ([1]; L. Intestine, 1 hour post-injection): 3.02 ± 0.33 %ID
- tissue uptake dose at 1 h [1, 4]: 0.15 ± 0.05 %ID
- tissue uptake dose at 1 h [1, 5]: 0.87 ± 0.1 %ID
- tissue uptake dose at 1 h [1, 6]: 0.17 ± 0.05 %ID
- tissue uptake dose at 1 h ([1]; Muscle, 1 hour post-injection): 0.02 ± 0.01 %ID
- tissue uptake dose at 1 h [1, 7]: 0.02 ± 0.01 %ID
- tissue uptake dose at 1 h [1, 8]: 10.8 ± 0.78 %ID
- tissue uptake dose at 1 h [1, 9]: 0.19 ± 0.03 %ID
- tissue uptake dose at 1 h ([1]; S. Intestine, 1 hour post-injection): 6.58 ± 1.1 %ID
- tissue uptake dose at 1 h [1, 10]: 1.65 ± 0.19 %ID
- tissue uptake dose at 1 h ([1]; Spleen, 1 hour post-injection): 0.17 ± 0.04 %ID
- tissue uptake dose at 1 h [1, 11]: 0.02 ± 0.03 %ID
- tissue uptake dose at 1 h ([1]; Stomach, 1 hour post-injection): 0.5 ± 0.06 %ID
- tissue uptake dose at 1 h [1, 12]: 0.16 ± 0.12 %ID
- dose excreted at 1 h ([1]; 1 hour post-injection): 71.6 ± 1.82%
- dose excreted at 1 h ([1]; 1 hour, Blocking (excess BBN)): 88.2 ± 1.79%
- tissue uptake at 1 h [1, 2]: 0.49 ± 0.15 %ID/g
- tissue uptake at 1 h ([1]; Heart, 1 hour, Blocking (excess BBN)): 0.16 ± 0.06 %ID/g
- tissue uptake at 1 h [1, 3]: 2.19 ± 0.47 %ID/g
- tissue uptake at 1 h [1, 4]: 0.16 ± 0.06 %ID/g
- tissue uptake at 1 h [1, 5]: 0.54 ± 0.13 %ID/g
- tissue uptake at 1 h [1, 6]: 0.74 ± 0.17 %ID/g
- tissue uptake at 1 h ([1]; Muscle, 1 hour post-injection): 0.12 ± 0.05 %ID/g
- tissue uptake at 1 h [1, 7]: 0.11 ± 0.07 %ID/g
- tissue uptake at 1 h [1, 8]: 27 ± 3.97 %ID/g
- tissue uptake at 1 h [1, 9]: 0.43 ± 0.1 %ID/g
- tissue uptake at 1 h [1, 10]: 0.95 ± 0.18 %ID/g
- tissue uptake at 1 h [1, 11]: 0.15 ± 0.16 %ID/g
- tissue uptake at 1 h [1, 12]: 0.32 ± 0.34 %ID/g
- tissue uptake at 1 h (in vivo; blood): 0.35 ± 0.08 %ID/g
- tissue uptake at 4 h (in vivo; blood): 0.08 ± 0.1 %ID/g
- tissue uptake at 24 h (in vivo; blood): 0.02 ± 0.03 %ID/g
- tissue uptake at 1 h (in vivo; heart): 0.15 ± 0.11 %ID/g
- tissue uptake at 24 h (in vivo; heart): 0.08 ± 0.06 %ID/g
- tissue uptake at 1 h (in vivo; kidney): 3.29 ± 0.56 %ID/g
- tissue uptake at 4 h (in vivo; kidney): 1.76 ± 0.15 %ID/g
- tissue uptake at 24 h (in vivo; kidney): 0.98 ± 0.28 %ID/g
- tissue uptake at 1 h (in vivo; large intestine): 5.14 ± 0.42 %ID/g
- tissue uptake at 4 h (in vivo; large intestine): 5.58 ± 1.26 %ID/g
- tissue uptake at 24 h (in vivo; large intestine): 2.76 ± 0.49 %ID/g
- tissue uptake at 1 h (in vivo; liver): 0.31 ± 0.04 %ID/g
- tissue uptake at 4 h (in vivo; liver): 0.15 ± 0.09 %ID/g
- tissue uptake at 24 h (in vivo; liver): 0.07 ± 0.02 %ID/g
- tissue uptake at 1 h (in vivo; lung): 0.31 ± 0.09 %ID/g
- tissue uptake at 4 h (in vivo; lung): 0.06 ± 0.06 %ID/g
- tissue uptake at 24 h (in vivo; lung): 0.05 ± 0.05 %ID/g
- tissue uptake at 1 h (in vivo; muscle): 0.08 ± 0.05 %ID/g
- tissue uptake at 4 h (in vivo; muscle): 0.06 ± 0.13 %ID/g
- tissue uptake at 1 h (in vivo; pancreas): 23.4 ± 4.99 %ID/g
- tissue uptake at 4 h (in vivo; pancreas): 17.9 ± 5 %ID/g
- tissue uptake at 24 h (in vivo; pancreas): 5.06 ± 0.77 %ID/g
- tissue uptake at 1 h (in vivo; small intestine): 5.15 ± 0.19 %ID/g
- tissue uptake at 24 h (in vivo; small intestine): 0.9 ± 0.14 %ID/g
- tissue uptake at 1 h (in vivo; spleen): 0.57 ± 0.1 %ID/g
- tissue uptake at 4 h (in vivo; spleen): 0.48 ± 0.25 %ID/g
- tissue uptake at 24 h (in vivo; spleen): 0.21 ± 0.07 %ID/g
- tissue uptake at 4 h (in vivo; stomach): 0.27 ± 0.08 %ID/g
- tissue uptake at 24 h (in vivo; stomach): 0.33 ± 0.1 %ID/g
- tissue uptake at 1 h (in vivo; tumor (Tumor 1)): 0.91 ± 0.16 %ID/g
- tissue uptake at 4 h (in vivo; tumor (Tumor 1)): 0.36 ± 0.13 %ID/g
- tissue uptake at 24 h (in vivo; tumor (Tumor 1)): 0.22 ± 0.07 %ID/g
- tissue uptake at 1 h (in vivo; tumor (Tumor 2)): 0.74 ± 0.27 %ID/g
- tissue uptake at 4 h (in vivo; tumor (Tumor 2)): 0.4 ± 0.23 %ID/g
- tissue uptake at 24 h (in vivo; tumor (Tumor 2)): 0.24 ± 0.15 %ID/g
- tissue uptake at 1 h (in vivo; tumor): 0.83 ± 0.23 %ID/g
- dose excreted at 1 h (in vivo; urine): 72.1 ± 3.55%
- dose excreted at 4 h (in vivo; urine): 84.3 ± 2.09%
- dose excreted at 24 h (in vivo; urine): 83.8 ± 1.41%
